Experimental findings from PMC1140370 are described below.

Where two headings read alike, the source gives them in different places.

Experiment in all cases: EMSA
A general note: In EMSA bound probe runs differently from free probe, usually more slowly.

Series [1] has as its target T1, Mcm4/6/7 complex (mouse, UniProt P49717;Q61881;P97311 1-862;1-719;1-821).
In series [2] the target is T1, Mcm4/6/7 complex. The source holds these as a separate data set.
The target in series [3] is T1, Mcm4/6/7 complex. This is another data set of the same source.
Series [4] has as its target T1, Mcm4/6/7 complex. This is another data set of the same source.
Series [5] deals with T1, Mcm4/6/7 complex. The source holds these as a separate data set.

T1 sequence (P49717 whole entry, chain 1 of 3): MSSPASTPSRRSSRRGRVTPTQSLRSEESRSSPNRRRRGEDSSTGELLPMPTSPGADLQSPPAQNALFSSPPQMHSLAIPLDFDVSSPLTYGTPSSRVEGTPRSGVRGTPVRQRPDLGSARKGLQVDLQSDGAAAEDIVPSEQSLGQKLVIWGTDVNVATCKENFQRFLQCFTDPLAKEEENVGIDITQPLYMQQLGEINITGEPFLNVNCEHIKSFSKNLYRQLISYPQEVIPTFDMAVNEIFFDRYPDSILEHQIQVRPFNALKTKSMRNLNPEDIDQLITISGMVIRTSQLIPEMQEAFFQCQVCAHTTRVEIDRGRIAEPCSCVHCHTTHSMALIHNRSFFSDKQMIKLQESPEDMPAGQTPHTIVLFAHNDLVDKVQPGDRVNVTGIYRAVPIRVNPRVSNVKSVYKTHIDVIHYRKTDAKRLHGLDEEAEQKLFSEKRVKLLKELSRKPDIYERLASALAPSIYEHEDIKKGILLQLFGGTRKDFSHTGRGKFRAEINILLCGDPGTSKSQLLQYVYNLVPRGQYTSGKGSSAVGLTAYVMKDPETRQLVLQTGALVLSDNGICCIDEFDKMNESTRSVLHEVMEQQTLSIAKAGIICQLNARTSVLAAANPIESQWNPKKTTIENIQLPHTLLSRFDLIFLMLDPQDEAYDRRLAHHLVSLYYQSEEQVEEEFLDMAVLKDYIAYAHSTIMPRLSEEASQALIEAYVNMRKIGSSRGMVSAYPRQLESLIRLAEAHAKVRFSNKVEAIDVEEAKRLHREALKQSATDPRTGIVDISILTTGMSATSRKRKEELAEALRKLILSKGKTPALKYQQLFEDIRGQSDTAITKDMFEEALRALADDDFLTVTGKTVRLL
T1 sequence (Q61881 whole entry, chain 2 of 3): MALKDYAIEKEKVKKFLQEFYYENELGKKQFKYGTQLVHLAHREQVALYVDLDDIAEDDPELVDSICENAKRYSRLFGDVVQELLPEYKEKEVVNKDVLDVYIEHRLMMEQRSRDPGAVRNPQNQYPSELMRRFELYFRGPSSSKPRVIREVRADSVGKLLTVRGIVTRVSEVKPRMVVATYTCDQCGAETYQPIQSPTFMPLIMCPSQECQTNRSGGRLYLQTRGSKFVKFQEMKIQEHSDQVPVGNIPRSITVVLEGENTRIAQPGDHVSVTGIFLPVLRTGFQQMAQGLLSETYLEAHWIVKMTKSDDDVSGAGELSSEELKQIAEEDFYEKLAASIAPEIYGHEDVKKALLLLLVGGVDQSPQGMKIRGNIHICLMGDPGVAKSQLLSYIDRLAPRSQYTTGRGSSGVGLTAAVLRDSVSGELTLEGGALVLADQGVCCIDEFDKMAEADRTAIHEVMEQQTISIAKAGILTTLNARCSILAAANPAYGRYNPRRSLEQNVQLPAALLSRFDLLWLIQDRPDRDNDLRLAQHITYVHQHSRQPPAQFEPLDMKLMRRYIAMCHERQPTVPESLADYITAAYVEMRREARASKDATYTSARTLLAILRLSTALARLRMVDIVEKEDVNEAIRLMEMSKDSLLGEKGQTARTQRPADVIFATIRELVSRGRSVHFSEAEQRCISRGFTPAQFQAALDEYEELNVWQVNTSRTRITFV
T1 sequence (P97311 whole entry, chain 3 of 3): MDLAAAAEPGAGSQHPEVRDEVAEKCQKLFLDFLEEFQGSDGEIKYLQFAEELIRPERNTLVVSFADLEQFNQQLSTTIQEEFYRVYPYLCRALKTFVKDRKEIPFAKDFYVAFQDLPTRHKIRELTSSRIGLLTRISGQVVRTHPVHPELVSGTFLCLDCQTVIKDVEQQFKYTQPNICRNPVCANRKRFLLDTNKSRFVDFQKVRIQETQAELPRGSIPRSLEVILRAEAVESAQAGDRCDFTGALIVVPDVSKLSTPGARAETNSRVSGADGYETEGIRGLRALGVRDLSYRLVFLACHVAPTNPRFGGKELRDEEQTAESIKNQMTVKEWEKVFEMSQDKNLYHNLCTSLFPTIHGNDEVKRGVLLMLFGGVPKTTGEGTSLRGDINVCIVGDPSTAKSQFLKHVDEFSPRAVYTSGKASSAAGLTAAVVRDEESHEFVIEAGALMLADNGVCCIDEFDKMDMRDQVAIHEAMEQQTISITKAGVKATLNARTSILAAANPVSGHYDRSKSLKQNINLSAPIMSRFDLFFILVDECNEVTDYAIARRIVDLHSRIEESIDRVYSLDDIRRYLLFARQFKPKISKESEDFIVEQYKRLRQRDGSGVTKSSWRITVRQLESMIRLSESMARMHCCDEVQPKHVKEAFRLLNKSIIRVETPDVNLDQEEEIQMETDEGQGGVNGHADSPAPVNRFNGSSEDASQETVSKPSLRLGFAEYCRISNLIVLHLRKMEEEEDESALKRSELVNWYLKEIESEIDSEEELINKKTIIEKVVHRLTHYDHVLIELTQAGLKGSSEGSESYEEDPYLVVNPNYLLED

B1: Bub-T30 (mixed)
DNA 1: GTTTTCCCAGTCACGACGTTGTAAAACGACTTTTTTTTTTTTTTTTTTTTTTTTTTTTTTTACCGAGCTCGAATTCGTAATCATGGTCAT
DNA 2: ATGACCATGATTACGAATTCGAGCTCGGTATTTTTTTTTTTTTTTTTTTTTTTTTTTTTTGTCGTTTTACAACGTCGTGACTGGGAAAAC
Regarding B1, in the series with Mcm4/6/7 complex [1], the binding result is recorded as “binds”.

B2: Bub-T20 (mixed)
DNA 1: GTTTTCCCAGTCACGACGTTGTAAAACGACTTTTTTTTTTTTTTTTTTTTTACCGAGCTCGAATTCGTAATCATGGTCAT
DNA 2: ATGACCATGATTACGAATTCGAGCTCGGTATTTTTTTTTTTTTTTTTTTTGTCGTTTTACAACGTCGTGACTGGGAAAAC
Consider B2, for which the binding result in the series with Mcm4/6/7 complex [2] was “binds”.

B3: 3' dT50-extension (mixed)
DNA 1: GTTTTCCCAGTCACGACGTTGTAAAACGACGGCCAGTTTTTTTTTTTTTTTTTTTTTTTTTTTTTTTTTTTTTTTTTTTTTTTTTTT
DNA 2: ACTGGCCGTCGTTTTACAACGTCGTGACTGGGAAAAC
For B3, the binding result with Mcm4/6/7 complex [3] is listed as “binds”.

B4: Bub-T50 (mixed)
DNA 1: GTTTTCCCAGTCACGACGTTGTAAAACGACTTTTTTTTTTTTTTTTTTTTTTTTTTTTTTTTTTTTTTTTTTTTTTTTTTTACCGAGCTCGAATTCGTAATCATGGTCAT
DNA 2: ATGACCATGATTACGAATTCGAGCTCGGTATTTTTTTTTTTTTTTTTTTTTTTTTTTTTTTTTTTTTTTTTTTTTTTTTTGTCGTTTTACAACGTCGTGACTGGGAAAAC
For the molecule B4, the binding result with Mcm4/6/7 complex [4] is on record as “binds”.

B5: Bub-T40 (mixed)
DNA 1: GTTTTCCCAGTCACGACGTTGTAAAACGACTTTTTTTTTTTTTTTTTTTTTTTTTTTTTTTTTTTTTTTTTACCGAGCTCGAATTCGTAATCATGGTCAT
DNA 2: ATGACCATGATTACGAATTCGAGCTCGGTATTTTTTTTTTTTTTTTTTTTTTTTTTTTTTTTTTTTTTTTGTCGTTTTACAACGTCGTGACTGGGAAAAC
As for B5, the binding result with Mcm4/6/7 complex [4] is given as “binds”.

B6: A-fork[3'] (mixed)
DNA 1: CGCATCGCCCACCTGCCTCTGGTGGAGGAGCTGCGTGCACTGAGGCAGTTGCACCTGAACCAGCTGATCCGTGCCGCTGGCGTGGTGGCCGCCTGCGCCGGAGTC
DNA 2: GGGTGAACCTGCAGGTGGGCAAAGATGTCCTAGCAAGGCACTGGTAGAATGGTGCAACTGCCTCAGTGCACGCAGCTCCTCCACCAGAGGCAGGTGGGCGATGCG
DNA 3: GACTCCGGCGCAGGCGGCCACCACGCCAGCGGCACGGATCAGCTGGTTCA
Turning to B6, the binding result with Mcm4/6/7 complex [5] is “binds”.

B7: A-fork[5'] (mixed)
DNA 1: B6 DNA 1
DNA 2: B6 DNA 2
DNA 3: ATTCTACCAGTGCCTTGCTAGGACATCTTTGCCCACCTGCAGGTTCACCC
Take B7: the binding result with Mcm4/6/7 complex [5] is recorded as “binds”.
